Measured values from IntAct's records for PubMed 25502805.

B1: Peroxisomal biogenesis factor 3 (Homo sapiens), P56589 (parent)
chain: MLRSVWNFLKRHKKKCIFLGTVLGGVYILGKYGQKKIREIQEREAAEYIAQARRQYHFESNQRTCNMTVLSMLPTLREALMQQLNSESLTALLKNRPSNKLEIWEDLKIISFTRSTVAVYSTCMLVVLLRVQLNIIGGYIYLDNAAVGKNGTTILAPPDVQQQYLSSIQHLLGDGLTELITVIKQAVQKVLGSVSLKHSLSLLDLEQKLKEIRNLVEQHKSSSWINKDGSKPLLCHYMMPDEETPLAVQACGLSPRDITTIKLLNETRDMLESPDFSTVLNTCLNRGFSRLLDNMAEFFRPTEQDLQHGNSMNSLSSVSLPLAKIIPIVNGQIHSVCSETPSHFVQDLLTMEQVKDFAANVYEAFSTPQQLEK
partner: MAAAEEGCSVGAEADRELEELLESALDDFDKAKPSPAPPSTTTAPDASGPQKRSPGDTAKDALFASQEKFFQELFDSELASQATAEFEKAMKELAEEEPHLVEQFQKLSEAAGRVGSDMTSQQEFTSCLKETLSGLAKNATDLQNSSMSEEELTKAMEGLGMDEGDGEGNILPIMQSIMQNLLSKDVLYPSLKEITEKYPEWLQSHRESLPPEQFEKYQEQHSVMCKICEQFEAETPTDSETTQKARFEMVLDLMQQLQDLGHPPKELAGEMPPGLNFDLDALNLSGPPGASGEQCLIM
B2: Kelch-like protein 3 (Homo sapiens), Q9UH77 (parent)
chain: MEGESVKLSSQTLIQAGDDEKNQRTITVNPAHMGKAFKVMNELRSKQLLCDVMIVAEDVEIEAHRVVLAACSPYFCAMFTGDMSESKAKKIEIKDVDGQTLSKLIDYIYTAEIEVTEENVQVLLPAASLLQLMDVRQNCCDFLQSQLHPTNCLGIRAFADVHTCTDLLQQANAYAEQHFPEVMLGEEFLSLSLDQVCSLISSDKLTVSSEEKVFEAVISWINYEKETRLEHMAKLMEHVRLPLLPRDYLVQTVEEEALIKNNNTCKDFLIEAMKYHLLPLDQRLLIKNPRTKPRTPVSLPKVMIVVGGQAPKAIRSVECYDFEEDRWDQIAELPSRRCRAGVVFMAGHVYAVGGFNGSLRVRTVDVYDGVKDQWTSIASMQERRSTLGAAVLNDLLYAVGGFDGSTGLASVEAYSYKTNEWFFVAPMNTRRSSVGVGVVEGKLYAVGGYDGASRQCLSTVEQYNPATNEWIYVADMSTRRSGAGVGVLSGQLYATGGHDGPLVRKSVEVYDPGTNTWKQVADMNMCRRNAGVCAVNGLLYVVGGDDGSCNLASVEYYNPVTDKWTLLPTNMSTGRSYAGVAVIHKSL
B3: pre-mRNA splicing regulator USH1G (Homo sapiens), Q495M9 (parent)
chain: MNDQYHRAARDGYLELLKEATRKELNAPDEDGMTPTLWAAYHGNLESLRLIVSRGGDPDKCDIWGNTPLHLAASNGHLHCLSFLVSFGANIWCLDNDYHTPLDMAAMKGHMECVRYLDSIAAKQSSLNPKLVGKLKDKAFREAERRIRECAKLQRRHHERMERRYRRELAERSDTLSFSSLTSSTLSRRLQHLALGSHLPYSQATLHGTARGKTKMQKKLERRKQGGEGTFKVSEDGRKSARSLSGLQLGSDVMFVRQGTYANPKEWGRAPLRDMFLSDEDSVSRATLAAEPAHSEVSTDSGHDSLFTRPGLGTMVFRRNYLSSGLHGLGREDGGLDGVGAPRGRLQSSPSLDDDSLGSANSLQDRSCGEELPWDELDLGLDEDLEPETSPLETFLASLHMEDFAALLRQEKIDLEALMLCSDLDLRSISVPLGPRKKILGAVRRRRQAMERPPALEDTEL
partner: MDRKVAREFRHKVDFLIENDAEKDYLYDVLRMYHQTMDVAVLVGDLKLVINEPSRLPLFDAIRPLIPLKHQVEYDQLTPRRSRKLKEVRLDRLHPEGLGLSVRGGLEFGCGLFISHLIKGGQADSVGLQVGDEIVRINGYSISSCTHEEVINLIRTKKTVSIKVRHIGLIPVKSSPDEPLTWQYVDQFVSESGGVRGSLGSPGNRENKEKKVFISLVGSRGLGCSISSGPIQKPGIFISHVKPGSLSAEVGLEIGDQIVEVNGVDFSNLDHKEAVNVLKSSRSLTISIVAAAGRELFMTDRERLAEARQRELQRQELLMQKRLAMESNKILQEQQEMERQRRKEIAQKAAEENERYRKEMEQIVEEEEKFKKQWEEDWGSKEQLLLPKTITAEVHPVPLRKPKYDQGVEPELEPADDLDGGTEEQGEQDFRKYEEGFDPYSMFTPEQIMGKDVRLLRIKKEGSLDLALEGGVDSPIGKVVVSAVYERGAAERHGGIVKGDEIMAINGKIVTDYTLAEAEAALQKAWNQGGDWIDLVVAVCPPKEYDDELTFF

Variants of: B1
Conditions: with pex19_human PEX19, P40855

| effect of a mutation on the interaction | Variant |
| --- | --- |
| with no effect | D347Y |

Variants of: B2
Conditions: with cul3_human CUL3, Q13618

| effect of a mutation on the interaction | Variant |
| --- | --- |
| disrupting interaction strength | C164F |
| disrupting interaction strength | R228G |

Variants of: B3
Conditions: with ush1c_human USH1C

| effect of a mutation on the interaction | Variant |
| --- | --- |
| with no effect | L48P |
| with no effect | L16V |
